We go through four molecules from PMC12205877.

In data set [1] the target is T1, TaBZR2 (Triticum aestivum (ZM1860), UniProt A0A3B6FJ07 1-354).
T1 sequence: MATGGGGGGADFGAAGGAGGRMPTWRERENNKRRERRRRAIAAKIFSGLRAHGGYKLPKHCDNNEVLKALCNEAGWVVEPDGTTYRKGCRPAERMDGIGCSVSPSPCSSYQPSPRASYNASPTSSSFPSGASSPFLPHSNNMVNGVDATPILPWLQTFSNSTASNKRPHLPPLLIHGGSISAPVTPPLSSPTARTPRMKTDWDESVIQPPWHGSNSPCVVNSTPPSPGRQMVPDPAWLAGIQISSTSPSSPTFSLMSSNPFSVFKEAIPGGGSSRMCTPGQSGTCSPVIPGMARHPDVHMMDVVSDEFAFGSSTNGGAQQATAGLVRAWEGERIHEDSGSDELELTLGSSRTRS
The data set can be described thus: competition.

Data set [2] deals with T1, TaBZR2. In words: EMSA. (In general: Mobility shift assays separate free from complexed probe on a gel.)
Data set [3] deals with T1, TaBZR2. The data set can be described thus: competition. This is another data set of the same source.

B1: TaHSFb2a promoter mutated E-box probe (dsDNA)
DNA 1: CCGTTTCTAGAAACCTCGCTGTACAGCCGACTAGAAAGGATCG
DNA 2: CGATCCTTTCTAGTCGGCTGTACAGCGAGGTTTCTAGAAACGG
Consider B1, for which, in the data set with TaBZR2 [1], the binding result is recorded as “no binding”.

B2: TaHSFb2a promoter E-box probe (WT) (dsDNA)
DNA 1: CCGTTTCTAGAAACCTCGCCACGTGGCCGACTAGAAAGGATCG
DNA 2: CGATCCTTTCTAGTCGGCCACGTGGCGAGGTTTCTAGAAACGG
In the case of B2, the binding result with TaBZR2 [2] was “binds”.

B3: TaHSP21 promoter E-box probe (WT) (dsDNA)
DNA 1: AAGCACATATGTGTTGAAACAAGTGCAAAATGACAAGTGAGGGC
DNA 2: GCCCTCACTTGTCATTTTGCACTTGTTTCAACACATATGTGCTT
B3: in the data set with TaBZR2 [2], the binding result was “binds”.

B4: TaHSP21 promoter mutated E-box probe (dsDNA)
DNA 1: AAGCATGCGCATGTTGAAATGGACACAAAATGATGGACAAGGGC
DNA 2: GCCCTTGTCCATCATTTTGTGTCCATTTCAACATGCGCATGCTT
In the case of B4, the binding result with TaBZR2 [3] is listed as “no binding”.
